Measurements taken from US20200115430A1 (I2O THERAPEUTICS, published 2020).
Starred links: 1 amine or outer side, 2 acyl side, 3 side chain; linkers in the order of their positions; H or OH if unused. Positions of bridges follow the written chain, without caps; N, C: chain ends. Non-standard residues stand in square brackets, D forms with d. Groups on a side chain read outwards from the residue. Primed or numbered codes have the meaning given here. No end group written: not given here. *: point of attachment. dpeg″ = —[CO(CH2)O(CH2)2O(CH2)NH]— spacer unit, O=C(COCCOCN[*:1])[*:2]; C20 diacid = O=C(O)CCCCCCCCCCCCCCCCCCC(=O)*; C18 diacid = O=C(O)CCCCCCCCCCCCCCCCC(=O)*; γGlu = O=C(O)[C@H](CCC(=O)[*:2])N[*:1]

B1: Compound A65 (peptide)
peptide: K([γGlu-γGlu-C18 diacid])CNTSTCATQRLANELHKSSNNFGPILPPTKVGSETY-NH2
modifications: disulfide 2-7; N-terminus assumed
SMILES: CC[C@H](C)[C@H](NC(=O)[C@@H]1CCCN1C(=O)CNC(=O)[C@H](Cc1ccccc1)NC(=O)[C@H](CC(N)=O)NC(=O)[C@H](CC(N)=O)NC(=O)[C@H](CO)NC(=O)[C@H](CO)NC(=O)[C@H](CCCCN)NC(=O)[C@H](Cc1c[nH]cn1)NC(=O)[C@H](CC(C)C)NC(=O)[C@H](CCC(=O)O)NC(=O)[C@H](CC(N)=O)NC(=O)[C@H](C)NC(=O)[C@H](CC(C)C)NC(=O)[C@H](CCCNC(=N)N)NC(=O)[C@H](CCC(N)=O)NC(=O)[C@@H](NC(=O)[C@H](C)NC(=O)[C@@H]1CSSC[C@H](NC(=O)[C@@H](N)CCCCNC(=O)CC[C@H](NC(=O)CC[C@H](NC(=O)CCCCCCCCCCCCCCCCC(=O)O)C(=O)O)C(=O)O)C(=O)N[C@@H](CC(N)=O)C(=O)N[C@@H]([C@@H](C)O)C(=O)N[C@@H](CO)C(=O)N[C@@H]([C@@H](C)O)C(=O)N1)[C@@H](C)O)C(=O)N[C@@H](CC(C)C)C(=O)N1CCC[C@H]1C(=O)N1CCC[C@H]1C(=O)N[C@H](C(=O)N[C@@H](CCCCN)C(=O)N[C@H](C(=O)NCC(=O)N[C@@H](CO)C(=O)N[C@@H](CCC(=O)O)C(=O)N[C@H](C(=O)N[C@@H](Cc1ccc(O)cc1)C(N)=O)[C@@H](C)O)C(C)C)[C@@H](C)O
B2: Compound A64 (peptide)
peptide: K([γGlu-γGlu-C20 diacid])CNTSTCATQRLANELHKSSNNFGPILPPTKVGSETY-NH2
modifications: disulfide 2-7; N-terminus assumed
SMILES: CC[C@H](C)[C@H](NC(=O)[C@@H]1CCCN1C(=O)CNC(=O)[C@H](Cc1ccccc1)NC(=O)[C@H](CC(N)=O)NC(=O)[C@H](CC(N)=O)NC(=O)[C@H](CO)NC(=O)[C@H](CO)NC(=O)[C@H](CCCCN)NC(=O)[C@H](Cc1c[nH]cn1)NC(=O)[C@H](CC(C)C)NC(=O)[C@H](CCC(=O)O)NC(=O)[C@H](CC(N)=O)NC(=O)[C@H](C)NC(=O)[C@H](CC(C)C)NC(=O)[C@H](CCCNC(=N)N)NC(=O)[C@H](CCC(N)=O)NC(=O)[C@@H](NC(=O)[C@H](C)NC(=O)[C@@H]1CSSC[C@H](NC(=O)[C@@H](N)CCCCNC(=O)CC[C@H](NC(=O)CC[C@H](NC(=O)CCCCCCCCCCCCCCCCCCC(=O)O)C(=O)O)C(=O)O)C(=O)N[C@@H](CC(N)=O)C(=O)N[C@@H]([C@@H](C)O)C(=O)N[C@@H](CO)C(=O)N[C@@H]([C@@H](C)O)C(=O)N1)[C@@H](C)O)C(=O)N[C@@H](CC(C)C)C(=O)N1CCC[C@H]1C(=O)N1CCC[C@H]1C(=O)N[C@H](C(=O)N[C@@H](CCCCN)C(=O)N[C@H](C(=O)NCC(=O)N[C@@H](CO)C(=O)N[C@@H](CCC(=O)O)C(=O)N[C@H](C(=O)N[C@@H](Cc1ccc(O)cc1)C(N)=O)[C@@H](C)O)C(C)C)[C@@H](C)O
B3: Compound A5 (peptide)
peptide: SCNTSTCATQRLANEKHKSSNNFGPILPPTKVGSETY
modifications: L-Lys 16 acylated: K*(γGlu-dpeg-dpeg-(γGlu)4-CO(CH2)14CH3); disulfide bridge Cys2-Cys7; C-terminal amide

Columns and labels:
human amylin 3 receptor = molecular target: T1, human amylin 3 receptor (human, UniProt P30988 25-474; O60896 24-148); assay: cell-based or functional assay
T1 sequence (looked up) 1: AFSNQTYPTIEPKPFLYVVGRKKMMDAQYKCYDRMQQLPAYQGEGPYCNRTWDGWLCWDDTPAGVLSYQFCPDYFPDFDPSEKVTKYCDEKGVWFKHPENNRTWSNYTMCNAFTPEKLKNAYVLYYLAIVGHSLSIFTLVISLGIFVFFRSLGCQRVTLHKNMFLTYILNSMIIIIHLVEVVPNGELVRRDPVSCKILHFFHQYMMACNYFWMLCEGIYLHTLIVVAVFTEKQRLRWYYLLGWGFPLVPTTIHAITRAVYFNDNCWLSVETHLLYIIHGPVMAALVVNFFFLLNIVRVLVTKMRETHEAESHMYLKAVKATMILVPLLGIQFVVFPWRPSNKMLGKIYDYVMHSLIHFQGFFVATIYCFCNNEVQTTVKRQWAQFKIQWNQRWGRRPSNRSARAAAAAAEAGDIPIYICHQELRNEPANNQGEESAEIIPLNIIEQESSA
T1 sequence (looked up) 2: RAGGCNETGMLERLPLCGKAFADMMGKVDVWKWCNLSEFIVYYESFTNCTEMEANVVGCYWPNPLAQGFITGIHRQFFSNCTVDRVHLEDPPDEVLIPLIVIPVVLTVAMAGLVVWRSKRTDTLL

[1] = molecular target: T2, human calcitonin receptor (human, UniProt P30988 25-474); assay: cell-based or functional assay
T2 sequence (looked up): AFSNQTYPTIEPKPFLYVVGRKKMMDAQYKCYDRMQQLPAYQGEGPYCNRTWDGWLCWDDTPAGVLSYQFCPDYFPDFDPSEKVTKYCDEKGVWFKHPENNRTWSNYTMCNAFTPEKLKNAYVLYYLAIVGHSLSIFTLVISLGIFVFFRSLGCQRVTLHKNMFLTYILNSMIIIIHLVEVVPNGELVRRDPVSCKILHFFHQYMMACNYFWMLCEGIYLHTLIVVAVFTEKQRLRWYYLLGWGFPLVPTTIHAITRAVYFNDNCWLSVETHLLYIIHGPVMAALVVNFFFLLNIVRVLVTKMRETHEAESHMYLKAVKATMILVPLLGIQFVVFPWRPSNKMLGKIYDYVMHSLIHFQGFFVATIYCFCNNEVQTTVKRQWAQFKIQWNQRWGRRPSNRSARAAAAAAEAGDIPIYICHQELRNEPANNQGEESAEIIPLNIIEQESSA

Binder	pEC50 (cAMP accumulation), 0% HSA (human amylin 3 receptor)	pEC50 (cAMP accumulation), 0.1% HSA (human amylin 3 receptor)	pEC50 (cAMP accumulation), 4% HSA (human amylin 3 receptor)	pEC50 (cAMP accumulation), 0% HSA [1]	pEC50 (cAMP accumulation), 0.1% HSA [1]	pEC50 (cAMP accumulation), 4% HSA [1]
B1	11.5 pEC50	10.1 pEC50	8.7 pEC50	10.5 pEC50	9 pEC50	7.9 pEC50
B2	12 pEC50	10.4 pEC50	9.1 pEC50	11.2 pEC50	9 pEC50	8.1 pEC50
SCNTSTCATQRLAN[dK]([γGlu-γGlu-dpeg″-γGlu-C20 diacid])LHKSSNNFGPILPPTKVGSETY-NH2 (disulfide 2-7) [Compound A100]	11.1 pEC50	8.8 pEC50	7.6 pEC50	10.5 pEC50	8.1 pEC50	7.1 pEC50
B3	12.3 pEC50	10.8 pEC50	9.2 pEC50	10.8 pEC50	9.5 pEC50	7.8 pEC50
